The results in this text go back to PMC3120129 (Biochemistry, 2011).

For orientation: stoichiometry N means a count of units in the complex or per binding partner.

For series [1], the target named is E2 domain of amyloid precursor protein (APP), construct APP_(346–548), native (human) (UniProt P05067). The series can be described thus: AUC.
Series [2] deals with the molecule itself. Nature of the series: crystal structure.

For the molecule “E2 domain of amyloid precursor protein (APP), construct APP_(346–548), native (from UniProt P05067-8 346-548) (domain or fragment)”, in series [1], the Kd was 9.2 µM and the stoichiometry N amounted to 2.

B1: E2 domain of APLP1, construct APLP1_(285–499) (crystallised) (domain or fragment, human, UniProt P51693 285-499, looked up)
chain: TPTPRPTDGVDIYFGMPGEISEHEGFLRAKMDLEERRMRQINEVMREWAMADNQSKNLPKADRQALNEHFQSILQTLEEQVSGERQRLVETHATRVIALINDQRRAALEGFLAALQADPPQAERVLLALRRYLRAEQKEQRHTLRHYQHVAAVDPEKAQQMRFQVHTHLQVIEERVNQSLGLLDQNPHLAQELRPQIQELLHSEHLGPSELEAPA
Take B1: the binding result in series [2] is listed as “binds”.
